Source: article PMC10692916, “Protein arginine N-methyltransferase 2 plays a noncatalytic role in the histone methylation activity of PRMT1” (The Journal of Biological Chemistry, 2023)
One block for each binder: values may come before it.

Tests used:
[1] = target: Protein arginine N-methyltransferase 1 (PRMT1) (human) (UniProt Q99873)
[2] = target: the molecule itself; experiment: native gel or EMSA; mCer-PRMT1 and mCit-PRMT2, 1 uM each, alone or mixed, 1 h at 37 °C in methylation buffer without SAH or H3 peptide; 4-20% native PAGE, fluorescence imaging
[3] = target: T1, Protein arginine N-methyltransferase 2 (PRMT2), full-length, wild type (human, UniProt P55345-1 1-433); experiment: differential scanning fluorimetry; 5 uM PRMT2, PRMT2ΔSH3 or PRMT2H112Q with 0-500 uM peptide, 7.5x SYPRO Orange, 50 mM Hepes pH 8.0, 10 mM NaCl, 1.0 mM DTT; 30 min at room temperature, heated 25-80 °C; KD from Tm against ligand concentration, single site model; details: both partners purified
T1 construct: PRMT2, human, UniProt P55345-1 as printed; cloned in pET28a(+); also called WT PRMT2; native PRMT2; source: E. coli Arctic Express (DE3), purified (Ni-NTA, Superdex 200 SEC)
T1 sequence (looked up): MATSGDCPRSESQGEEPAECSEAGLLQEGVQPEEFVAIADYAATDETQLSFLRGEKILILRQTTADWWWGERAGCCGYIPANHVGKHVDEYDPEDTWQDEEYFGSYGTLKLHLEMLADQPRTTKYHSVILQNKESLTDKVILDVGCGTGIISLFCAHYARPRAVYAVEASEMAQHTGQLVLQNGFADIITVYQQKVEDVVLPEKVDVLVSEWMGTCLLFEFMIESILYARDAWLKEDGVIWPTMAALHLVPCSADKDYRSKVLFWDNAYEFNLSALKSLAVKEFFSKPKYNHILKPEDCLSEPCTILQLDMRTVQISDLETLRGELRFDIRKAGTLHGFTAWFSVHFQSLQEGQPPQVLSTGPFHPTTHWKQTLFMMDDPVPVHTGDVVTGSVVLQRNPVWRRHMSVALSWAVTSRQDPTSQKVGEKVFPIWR

Sequence of Protein arginine N-methyltransferase 1 (PRMT1) (human) (Q99873 other isoform, or with tags, fused parts or gaps): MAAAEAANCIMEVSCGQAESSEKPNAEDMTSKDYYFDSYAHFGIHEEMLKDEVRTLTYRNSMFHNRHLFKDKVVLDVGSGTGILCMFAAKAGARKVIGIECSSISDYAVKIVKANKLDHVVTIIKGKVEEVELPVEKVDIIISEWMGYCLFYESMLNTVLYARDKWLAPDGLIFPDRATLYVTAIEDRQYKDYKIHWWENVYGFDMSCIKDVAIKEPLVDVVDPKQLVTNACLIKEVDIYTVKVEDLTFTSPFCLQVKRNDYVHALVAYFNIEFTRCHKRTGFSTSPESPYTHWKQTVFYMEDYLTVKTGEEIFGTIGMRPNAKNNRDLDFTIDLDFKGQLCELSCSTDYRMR

methylation signal of histone H2A at 50 ug/ml calf thymus histones, PRMT1 100 nM with 10-fold excess of PRMT2, densitometry of phosphor images [1]: 3 fold
B1: Protein arginine N-methyltransferase 2 (PRMT2), full-length, wild type (enzyme)
chain: MATSGDCPRSESQGEEPAECSEAGLLQEGVQPEEFVAIADYAATDETQLSFLRGEKILILRQTTADWWWGERAGCCGYIPANHVGKHVDEYDPEDTWQDEEYFGSYGTLKLHLEMLADQPRTTKYHSVILQNKESLTDKVILDVGCGTGIISLFCAHYARPRAVYAVEASEMAQHTGQLVLQNGFADIITVYQQKVEDVVLPEKVDVLVSEWMGTCLLFEFMIESILYARDAWLKEDGVIWPTMAALHLVPCSADKDYRSKVLFWDNAYEFNLSALKSLAVKEFFSKPKYNHILKPEDCLSEPCTILQLDMRTVQISDLETLRGELRFDIRKAGTLHGFTAWFSVHFQSLQEGQPPQVLSTGPFHPTTHWKQTLFMMDDPVPVHTGDVVTGSVVLQRNPVWRRHMSVALSWAVTSRQDPTSQKVGEKVFPIWR

B2: mCit-PRMT2 (mCitrine fusion of PRMT2) (enzyme, human, UniProt P55345-1 1-433, looked up)
chain: MATSGDCPRSESQGEEPAECSEAGLLQEGVQPEEFVAIADYAATDETQLSFLRGEKILILRQTTADWWWGERAGCCGYIPANHVGKHVDEYDPEDTWQDEEYFGSYGTLKLHLEMLADQPRTTKYHSVILQNKESLTDKVILDVGCGTGIISLFCAHYARPRAVYAVEASEMAQHTGQLVLQNGFADIITVYQQKVEDVVLPEKVDVLVSEWMGTCLLFEFMIESILYARDAWLKEDGVIWPTMAALHLVPCSADKDYRSKVLFWDNAYEFNLSALKSLAVKEFFSKPKYNHILKPEDCLSEPCTILQLDMRTVQISDLETLRGELRFDIRKAGTLHGFTAWFSVHFQSLQEGQPPQVLSTGPFHPTTHWKQTLFMMDDPVPVHTGDVVTGSVVLQRNPVWRRHMSVALSWAVTSRQDPTSQKVGEKVFPIWR
notes: PRMT2, human, UniProt P55345-1 printed for PRMT2 in the same sentence; cloned in pET28a(+); also called mCitrine-PRMT2; source: E. coli Arctic Express (DE3), purified (Ni-NTA, Superdex 200 SEC)
binding result [2]: binds

B3: Histone H4 peptide (Ac-SGRGKGGKGLGKGGAKR) (peptide)
peptide: SGRGKGGKGLGKGGAKR
modifications: N-terminal acetylation
notes: N-terminal tail of histone H4; source: synthetic peptide, bought: Canada Peptide
ΔTm at 500 μM peptide [3]: 5.87 °C
